Test results taken from the DeepSol protein solubility set.

Assay: soluble on expression in E. coli; label from the status in PepcDB or PDB records

Sequence | soluble on expression in E. coli
MGSDKIHHHHHHMDAHRYCQERAAASGSSFYYSFVFLPTEVRRAITAFYALCRELDDVVDECHERQLAELKLAWWREEIGRFAAGAATHPATRALADTARGASVQPALLLEIVDGMAMDLEHARYADFRALKLYCHRAASVVGEIAAGIFEGARGEHDREVRRYAHELGLAFQLTNIIRDVGEDARRGRIYLPLDEMARFGVAEADVLEGRDTPAFRALMQFQYERAVAHYERALATLPSAARRAQRPGLVMAAIYRSLLDEIRRDGFPVLRARIALTPLRKLWLASRTWLFP | not soluble
MAHHHHHHMFHGFPQVQVVSDDAPTGESIFAKDSDSHVELPPAKKVRISFPALTHLGSFSQDATCHSAVGGRLCGVQQGDTILITSVLPSLGASGDAEDERDDTAESKQQQKMYEKVKEMLRKECLDSYSVGYFIVSSACVNDPYSVVTADRLANLAIDGHPSVLLVYDPFRTGLMGKLYLRAFVPTDAFLDFSRKNKKTKKTDKKSGMQEEARLLRACSVPKQGVLREVKVEVEVDAYQLFCLNGIDIAPLPSNSTVHHSDSMADYKVALLESVQRNLSDLEGKLSRETSRNQRDENNVPPARGVDTMLALVQLREQAQHLEALCDGTLLISSLLRDL | not soluble
MKIEHLQHPTTHQLDQLMTIWLSGNLTAHDFVSADYWRQQAPLVREALQSAELIVGLTDGPEAYILGFIGLQNDYIAGIFICNDAQHQGLGTALLATAQADYHQLQLNVYVANRPAIAFYHYHGFRVIDQASDQATQQSEYTMQWQR | not soluble
SSKIILIPSNIPQEFPEASISNPERLRILAQVKDFIPHESTIVIDKVPTITSEQSTYINICIFNLLEACSSRVLVPGTLVNIDAFYDGESINPVDIYEVNGANFTMENIQLIDEMNNSIGKFN | soluble
MAHHHHHHMGNTVPYNCYERWGKRTPDGPLLNYDPQMPNSGTLSVLLENFDYESTEESNNKCEYIINKEPIEKNNNMNPKVIRNARRRPTYSPTARKINIQSDDEEEDEDDDEKLSTDDSDENISAKDIKDEKIQQYRKTLTKIVKIKTAIFHETVKVTCSKDGKMLEWYKGKNDSDGKKKPIGSFPLNKITSIRTKVDNLKSLEISVSSVHISTYLFTFKTREERESWQNNLESFRKIMSMK | not soluble
TATRVRPREYALRYPYMQVNRPGMVSWLVFDLDHANALAWDDAGLPAPNLMVRNRKSGHSQLFYAVPSVCTTENARTKPIQYMKAIYAAFAARLDADVDYHGGPVAKTPGHPWWETTEFHSHVYELGELASAVELTVKPWATGPKLDQVSHSRHCILFEQLRYFAYSIVNRERELGSFESFMRSLDAYAYNHNSFLKQGFSENLPLSSIRATVKSVGRWTWDRYTGDRRCHRGAMQLDGSLSLTERQSLAAKRTNELRH | not soluble
MLTYQVKQGDTLNSIAADFRISTAALLQANPSLQAGLTAGQSIVIPGLPDPYTIPYHIAVSIGAKTLTLSLNNRVMKTYPIAVGKILTQTPTGEFYIINRQRNPGGPFGAYWLSLSKQHYGIHGTNNPASIGKAVSKGCIRMHNKDVIELASIVPNGTRVTINR | soluble
MSLLQTKDYEFWFVTGSQHLYGEETLELVDQHAKSICEGLSGISSRYKITHKPVVTSPETIRELLREAEYSETCAGIITWMHTFSPAKMWIEGLSSYQKPLMHLHTQYNRDIPWGTIDMDFMNSNQSAHGDREYGYINSRMGLSRKVIAGYWDDEEVKKEMSQWMDTAAALNESRHIKVARFGDNMRHVAVTDGDKVGAHIQFGWQVDGYGIGDLVEVMDRITDDEVDTLYAEYDRLYVISEETKRDEAKVASIKEQAKIELGLTAFLEQGGYTAFTTSFEVLHGMKQLPGLAVQRLMEKGYGFAGEGDWKTAALVRMMKIMAKGKRTSFMEDYTYHFEPGNEMILGSHMLEVCPTVALDQPKIEVHSLSIGGKEDPARLVFNGISGSAIQASIVDIGGRFRLVLNEVNGQEIEKDMPNLPVARVLWKPEPSLKTAAEAWILAGGAHHTCLSYELTAEQMLDWAEMAGIESVLISRDTTIHKLKHELKWNEALYRLQKEGHHHHHH | soluble
MSSHHHHHHMQFDVTIEIPKGQRNKYEVDHETGRVRLDRYLYTPMAYPTDYGFIEDTLGDDGDPLDALVLLPQPVFPGVLVAARPVGMFRMVDEHGGDDKVLCVPAGDPRWDHVQDIGDVPAFELDAIKHFFVHYKDLEPGKFVKAADWVDRAEAEAEVQRSVERFKAGTH | soluble
MEAPEFKDFAKTMVDFIAEYLENIRERRVLPEVKPGYLKPLIPDAAPEKPEKWQDVMQDIERVIMPGVTHWHSPKFHAYFPTANSYPAIVADMLSGAIACIGFTWIASPACTELEVVMMDWLGKMLELPAEFLACSGGKGGGVIQGTASESTLVALLGAKAKKLKEVKELHPEWDEHTILGKLVGYCSDQAHSSVERAGLLGGVKLRSVQSENHRMRGAALEKAIEQDVAEGLIPFYAVVTLGTTNSCAFDYLDECGPVGNKHNLWIHVDAAYAGSAFICPEYRHLMKGIESADSFNFNPHKWMLVNFDCSAMWLKDPSWVVNAFNVDPLYLKHDMQGSAPDYRHWQIPLGRRFRALKLWFVLRLYGVENLQAHIRRHCNFAKQFGDLCVADSRFELAAEINMGLVCFRLKGSNERNEALLKRINGRGHIHLVPAKIKDVYFLRMAICSRFTQSEDMEYSWKEVSAAADEMEQEQ | soluble
MQDRQKAQDYRALLLADTPLIDVRAPIEFEQGAMPGAINLPLMMDDERAAVGTCYKRQGADAALALGHRLVCGDIRQQRLEAWKAAYQRFPNGYLCCARGGQRSHIVQRWLQETGIDCPLIEGGYKALRQTAIQATWQLAQKPILLIGGCTGSGKTQLVRQQPNGVDLEGLARHRGSSFGRTLNPQLSQASFENKLAVELLKINARQTLKRWVLEDEGRTIGANHLPECLRERMAQAPIAVVEDPFALRLERLREEYFIRMHHDFTHAYGDEAGWQAYSEYLHHGLFAIRRRLGLQRFAELTDTLDRALAEQLSSGSTDGHMAWLVPLLNEYYDPMYRYQLEKKAANIVFRGTWQDVANWLKAQ | not soluble
NSLDNQVRLLLEDSVPKYNASYFLESKTSEINRRVEALQAVDNKVQLTEQAMQVNEQLASISTVLKSNKMSSEFYQLLESEAGLASLLEKYVDMISTRIDQTRRVDQLMEQINWLHQDIRSELKPVRQEVHWQIERVNDSKEIQNLLVQLSTLQRVIDIESAVYDMAIDVAGASMPEQVDNGMKVIHFRLMDLQESSTTLMNQPTSIAYKQLLQELVVVLSPEGAFDKQLMSLVTLNGDIQKIQEQIALSMEAIHQQIGELVSTADQTFKQVKSETAERVSYGN | not soluble
MYIPKHFAVNDPDVAYQVIEENSFATLVSMHQRELFATHLPLLLDREKTCLYGHFARSNPQWNDIQHQTVLAIFHGPHCYISPSWYETNQAVPTWNYVAVHVYGNVELINDQGEVMQSLHDMVEKYEAPGSRYQLSEVDAGMLSGMNKGIQAFKIIIKRIEGKAKLSQNHPAHRQERIIKQLEQMPFENEKRIASLMKKQRQ | soluble
MAHHHHHHMTEYEEKERKTSLAALRRFVKHCGPTRFTFITRIPLSRNTNQVNGTLLLENGDLTVCAQDMKANIADIREDIASFSVPQHQDFIRAFEEAKNMLKNELAALQEHKSILMVQYEMARP | not soluble
ELQVLDTWQGDVVRDTKTLSGGESFLVSLALALALSDLVSHKTSIDSLFLDEGFGTLDSETLDMALDALDNLNASGKMIGVISHIEAMKERIPVQIKVTKRSGLGVSELEKQYKKVS | not soluble
MSIRILPENEIKPSASAFEIPPLLFANPKNLYTRRAKRLRELAKNNPLRDYLEFAAHLVDIQLTLLETAPIGNYAEKLTAYLTENQGQKPLNKQQFARDEKWLELLLALIKQCKPYATGAILTTLEFLEKASYAELNNLADHLLNERYEQVSPDQSVFIWLALSLYWTQLAQQLPRHTQAEIGERHTCPVCGSAPITSVIHLDKTQGLRYLHCALCESEWNMTRAQCSNCDESGDLNYWSFDTVEAPIKAESCGDCHSYLKVLYQEKDPYVEPLADDLASLMLDIEMEQKGFVRSGLNPFLFSIE | not soluble
HEHPTSAGGDGGAGTGAVGTHDGSAAAAAAAAALPSISGARGHAGPEGGHDNDMGGMDASGGGGGGGYGRLPGLAAQSSMASVDGDEASLPPIANLSLGKANMTGSTVGGAAHASTRRSTLNTYYEPGAGGGGGTGGAGGGGGGAGPGPAGYGKVAKAAAVGGAGSVAGGGGVVGGAGVGGGGAVGSGTVGRRQSVGVVVGKYGSVNKQASQGHGGGGPGVAGAAGMAVTGGHAGGGVGGGGGGAVGVGGVGVNKYKANVGKTNSKYISPYSLRQLAG | not soluble
